For 131 substances, amyloid nucleation score results are on record in the supplement of paper PMC12042874.

± gives the uncertainty stated by the source.

A short description of this data set: amyloid nucleation score (Sup35N fusion, yeast selection) (log enrichment); library NNK3; higher = more nucleation; inactive = no reads after selection. The gist of the method:
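Nucleation score: DiMSum log enrichment of output over input reads, centred on the mode score of non-aggregating sequences. Only sequences with at least 100 input reads were kept. Reads came from Illumina sequencing of plasmid inserts before and after 7 days of growth at 30°C without adenine and uracil, in psi-negative yeast expressing Sup35N fused to peptides of 20 random codons after 24 hours of induction with 100 μM copper sulfate.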

MRNMCVLAIILILCFGTRFK yielded an amyloid nucleation score of 1.21 ± 0.08.
As for KSYSAWSTVRDSKPTVLGN, the entry is “inactive”; as for NQQWISTRVVLKAPAFERRT, “inactive”; as for PVRSPAACGDRLSVRVANME, “inactive”.
Take LVQSTRGSRSNTWACNERFV: the amyloid nucleation score entry is “inactive”.
In the case of QLLFPGLWESATRILCENFM, the amyloid nucleation score result is “inactive”.
Take QPAFPWTYVFLLYHGW: the amyloid nucleation score result is “inactive”.
Take FVRIHVGSSTGIF: the amyloid nucleation score result was “inactive”.
For the substance HSELW, the amyloid nucleation score result was “inactive”.
Next, KFSMMYLRYFVWFLRLIMAS: “inactive”.
For the substance KFADQALTHSQYATFLTGLY, the amyloid nucleation score entry is “inactive”.
With DDYLPMISPFRCYSQFKYIS, the amyloid nucleation score entry is “inactive”.
Next, EVRPCNMLGLRNIGRGYREN: “inactive”.
FDYLLYQLCYVYRTYKTVRR: the amyloid nucleation score entry is “inactive”.
For FILNRLTRIIWDF, the amyloid nucleation score entry was “inactive”.
For the substance HIEFNWPVGLARSWMFCFSH, the amyloid nucleation score entry is “inactive”.
As for SYRFYDDQSLCG, the entry is “inactive”; as for REMKWRLELLVGGKYRYHQL, “inactive”.
YTNHFVDLGMVKLVLFTWNM showed an amyloid nucleation score of 1.63 ± 0.11.
As for RILPYSGSALLISTGFYHR, the entry is “inactive”; as for LGVALVTICVLRECGKILYI, -0.107 ± 0.68; as for SRFDDCSVYRESWVSIVRLS, “inactive”.
Next, CIRGVQNTGCGAQACYPVCR: “inactive”; TAYMNQIVNRELYP: “inactive”.
As to SDLGHWHIFRYLAAIASRRK, the amyloid nucleation score entry was “inactive”.
As to WLRRN, the amyloid nucleation score entry is “inactive”.
In the case of GQSNMFCNWTFANVKRCNL, the amyloid nucleation score came to 2.33 ± 0.071.
In turn, GISALSVWFCISDRRSDQDH came in with an amyloid nucleation score of 2.63 ± 0.057.
With IICIYKIPKFTTRKLILRVY, the amyloid nucleation score result was “inactive”.
In turn, NLSNIFQSNMYVTRSVNGVR had an amyloid nucleation score of 1.68 ± 0.084.
In the case of MSVRGHSSTVVYLCREPGLK, the amyloid nucleation score is 0.402 ± 0.38.
CSISNVFSVVNVSSYSWGLY showed an amyloid nucleation score of 0.373 ± 0.39.
Consider TFKARSLILSLKLYANMDH, for which the amyloid nucleation score entry was “inactive”.
In the case of LPYYCSIDAVMCREPTGLGS, the amyloid nucleation score entry is “inactive”.
With MQSNCTVMTNPNDKRMAAWW, the amyloid nucleation score result is “inactive”.
Consider GWNTSSQRLHSAKPSHHRR, for which the amyloid nucleation score was -0.892 ± 1.9.
As for RRNYRSFKDLLFHDYTFMDS, the entry is “inactive”; as for QSVSVGLCCWAMPVK, “inactive”; as for PDAHTKMT, 0.603 ± 0.27.
Next, MNVFWCACYRCSDRVSMKVW: 2 ± 0.058.
With CSDCDWSDFFVDVSFWIMVI, the amyloid nucleation score entry is “inactive”.
LFLLNVAYCNCFT came in with an amyloid nucleation score of 3.27 ± 0.059.
With FPENIVYGHEGLD, the amyloid nucleation score entry is “inactive”.
Next, FFCFLDYDYSIFEQVNEGLS: “inactive”.
For TLSLPLMTRWSLYLCSDWAS, the amyloid nucleation score result is “inactive”.
With VRHGSMTDCYFLHTLDRREC, the amyloid nucleation score result was “inactive”.
Consider TYFTFSTWLRMYSGYSLVQV, for which the amyloid nucleation score entry was “inactive”.
Turning to FSTWNKRRMLYRHSGLFRQS, the amyloid nucleation score entry was “inactive”.
Regarding GIWDWVLAIMLRFVTKPS, the amyloid nucleation score entry was “inactive”.
As to GCNRVIYKRI, the amyloid nucleation score is -0.609 ± 1.2.
On to GLQVYMIQRIETGM, for which the amyloid nucleation score entry is “inactive”.
Next, MKSQVHNIKWLPTCS: “inactive”; RYRSGLDPFRCSYFNSPFYS: “inactive”; TPIHRL: 0.451 ± 0.16.
In the case of LEASESGIVEVPQPNYCITP, the amyloid nucleation score entry is “inactive”.
In turn, MNWYRIFVVNFSCKRLYSVK showed an amyloid nucleation score of 1.64 ± 0.067.
Next, GTEDWPNHGKKTLAINYLCP: “inactive”; YTVSFYIQLCTDRQISHRGI: 2.34 ± 0.071; VGIKTFGESGMYQVCSQVSC: “inactive”.
As to FSSRHVTPCIRINFNIVSCS, the amyloid nucleation score entry is “inactive”.
For RKYCYGMSLFTDMTMLVRRK, the amyloid nucleation score result was “inactive”.
As for FNFLPNGWRGKVHIGYYGNT, the entry is “inactive”.
With KCEFN, the amyloid nucleation score result is “inactive”.
Regarding IGGVAGQRGSIA, the amyloid nucleation score entry was “inactive”.
Next, TLCNFKCVYTGSLKIFHRYM: 1.91 ± 0.094; MTLSVRMAEEQN: “inactive”.
Regarding SLSFSVLLHWIFCYFWILY, the amyloid nucleation score entry was “inactive”.
For TTLLFMKH, the amyloid nucleation score entry was “inactive”.
For the substance HIWVCHWRYYVIMLPRSAWI, the amyloid nucleation score entry was “inactive”.
With QTSST, the amyloid nucleation score entry was “inactive”.
Next, LLLVSLELTRLNSHEWVYVI: “inactive”.
Consider EWFCLCWT, for which the amyloid nucleation score result was “inactive”.
As to VTSTQVMNMLD, the amyloid nucleation score result is “inactive”.
Next, GESAKDVFGSLCRRLISIQL: “inactive”; TYPRLNVHLLPLDFILYPH: “inactive”; DTNGMMRAMLRYPIIRFLYA: -0.402 ± 0.63.
TFWMPD had an amyloid nucleation score of -0.55 ± 1.3.
EKLIVNDYCRRSGPDMVAVD: the amyloid nucleation score entry is “inactive”.
As to LSYSRTGASC, the amyloid nucleation score entry is “inactive”.
On to SVTPFPIIFN, for which the amyloid nucleation score result is “inactive”.
SSVSFVITGPVAFVWNQGLV registered an amyloid nucleation score of 2.56 ± 0.083.
In the case of TGRLVIFTEWRLSAESSRSH, the amyloid nucleation score result was “inactive”.
Next, KYNPTMSNYSGLLWKIGVGT: “inactive”; NGIMLQIRNPSSKLNNLLWF: “inactive”; VFSDGLFVMTAAVYQYT: “inactive”.
As for FEWLWIFWYNLFWLWGNYSI, the amyloid nucleation score entry was “inactive”.
As for FVIFW, the amyloid nucleation score result is “inactive”.
For the substance ICRQS, the amyloid nucleation score result was “inactive”.
Next, FQFWGAGGDI: “inactive”; WIGVQCP: “inactive”.
Turning to MHLLLQRIWVLQAK, the amyloid nucleation score entry was “inactive”.
As for SVWRECNGKFVSFASHFADY, the entry is “inactive”; as for HNCASCSVRVHDSQSEKIAT, “inactive”; as for DMFNLNLFGLLNCLGVMEET, 1.31 ± 0.072.
For the substance SSSAFCGVAIRALIAGGKGY, the amyloid nucleation score result is “inactive”.
In the case of WLSRLVGFALSTKLGP, the amyloid nucleation score entry was “inactive”.
Turning to EIGSHIGDVQHRVFYNVTLV, the amyloid nucleation score result is “inactive”.
The substance SNSYHIVVYVRYGHSHG gave an amyloid nucleation score of 2.62 ± 0.083.
In the case of RYNWVYDFVLNRSSYWCW, the amyloid nucleation score result was “inactive”.
DVCGFYIHFRFTNKYQGVAS: the amyloid nucleation score entry was “inactive”.
Next, MQLIIIWATRK: 1.43 ± 0.14.
Regarding RFSMNASYFYYVIMFSDCYS, the amyloid nucleation score entry was “inactive”.
In the case of FLMVLSMDLYVKLLLGSYIN, the amyloid nucleation score result was “inactive”.
As for ANVCGVL, the amyloid nucleation score result is “inactive”.
As for LKRVDEVVIDPLYREGYTER, the entry is “inactive”; as for SAPNYVRSSLFCN, “inactive”; as for YMGEVCCIVVVTDHLCTVVI, “inactive”.
FGTCLNLYL: the amyloid nucleation score is 1.3 ± 0.11.
With LRVMSI, the amyloid nucleation score was -0.964 ± 2.5.
Substance FGGLWLICSVVYTLNCRSMV yielded an amyloid nucleation score of 1.79 ± 0.081.
On to FLPRLSNIWPNFDSSEQLRY, for which the amyloid nucleation score entry was “inactive”.
For the substance GHPGNSAEADKCGHRQRRP, the amyloid nucleation score result is “inactive”.
In the case of FCYVSCLS, the amyloid nucleation score result was “inactive”.
For IRRLQINRAKHAILLLHYNW, the amyloid nucleation score result is “inactive”.
Next, ANRKSRVKSEEWAEVNGCWG: “inactive”; RFRNYGLSGR: -0.38 ± 0.89.
For the substance LVGVSRRSREGDSTLSPSLG, the amyloid nucleation score entry was “inactive”.
As for KKPPHRLTVLMTGIAM, the entry is “inactive”; as for WRRLRATISNGAWD, “inactive”.
In turn, FTFWWDRLQNWKHIGFFGKV had an amyloid nucleation score of 1.06 ± 0.12.
Take LMGVDSLLYRKHSGV: the amyloid nucleation score entry is “inactive”.
Take PPLPRFSLSFGRWLFLICHE: the amyloid nucleation score result was “inactive”.
As for CYIYLSMQYGEHANDIICLW, the entry is “inactive”; as for ESIYVNPGDSL, “inactive”.
As for EVIVVKGHGVHIVFCVGSAS, the entry is “inactive”.
As for SPLLGINYRVFNVCLLERR, the figure is 0.909 ± 0.21; as for SERKMVSKRTLKGYFRRQVI, “inactive”.
Regarding RQNPGLGFLNFFLMV, the amyloid nucleation score came out at 0.258 ± 0.35.
As for NEMHFLS, the entry is “inactive”; as for VWSVASYPSGPGKFCGGMTE, “inactive”.
Regarding RYVSSLLSNLRGQKNCVSVL, the amyloid nucleation score result was “inactive”.
